B1: human PQBP1 full-length form (PQBP1-FL) (natural protein, UniProt O60828 1-265, looked up)
chain: MPLPVALQTRLAKRGILKHLEPEPEEEIIAEDYDDDPVDYEATRLEGLPPSWYKVFDPSCGLPYYWNADTDLVSWLSPHDPNSVVTKSAKKLRSSNADAEEKLDRSHDKSDRGHDKSDRSHEKLDRGHDKSDRGHDKSDRDRERGYDKVDRERERDRERDRDRGYDKADREEGKERRHHRREELAPYPKSKKAVSRKDEELDPMDPSSYSDAPRGTWSTGLPKRNEAKTGADTTAAGPLFQQRPYPSPGAVLRANAEASRTKQQD
notes: also called full-length PQBP1
B2: human PQBP1(1–94) including WWD (domain or fragment, UniProt O60828 1-94, looked up)
chain: MPLPVALQTRLAKRGILKHLEPEPEEEIIAEDYDDDPVDYEATRLEGLPPSWYKVFDPSCGLPYYWNADTDLVSWLSPHDPNSVVTKSAKKLRS
notes: human PQBP1, residues 1-94, including the WW domain (WWD); Used in SPR and in NMR; also called WWD of PQBP1; PQBP1-WWD
B3: Tau(151–197) of Tau 410 (domain or fragment, human, UniProt P10636-5 151-197, looked up)
chain: IATPRGAAPPGQKGQANATRIPAKTPPAPKTPPSSGEPPKSGDRSGY
notes: numbers count on: Tau 410; pOPHLT-s has a TEV protease cleavage site after the His-tag and lipoyl domain; Isotope-labelled (15N); also called proline-rich region
B4: Tau(198–243) of Tau 410 (domain or fragment, human, UniProt P10636-5 198-243, looked up)
chain: SSPGSPGTPGSRSRTPSLPTPPTREPKKVAVVRTPPKSPSSAKSRL
notes: human tau, splice form Tau 410, residues 198-243; numbers count on: Tau 410; pOPHLT-s has a TEV protease cleavage site after the His-tag and lipoyl domain; Isotope-labelled (15N); also called proline-rich region

Experiments:
Details in all cases: both partners purified
[1] = molecular target: T1, human Tau 441 full-length protein (4R tau), SPR construct (human, UniProt P10636-8 1-441); assay: SPR; Tau proteins immobilised on CM5 sensor chips at 1200 RU; PQBP1 constructs loaded at multiple doses for 120 s; equilibrium response; BIAcore J, 25 °C; 10 mM Tris-HCl pH 8.5, 150 mM NaCl, 3 mM EDTA, 0.005% Tween-20
T1 construct: source: E. coli Rosetta(DE3)pLysS, purified (Ni-NTA agarose); not shown: His-tag, N-terminal, kept
T1 sequence (P10636 other isoform, or with tags, fused parts or gaps): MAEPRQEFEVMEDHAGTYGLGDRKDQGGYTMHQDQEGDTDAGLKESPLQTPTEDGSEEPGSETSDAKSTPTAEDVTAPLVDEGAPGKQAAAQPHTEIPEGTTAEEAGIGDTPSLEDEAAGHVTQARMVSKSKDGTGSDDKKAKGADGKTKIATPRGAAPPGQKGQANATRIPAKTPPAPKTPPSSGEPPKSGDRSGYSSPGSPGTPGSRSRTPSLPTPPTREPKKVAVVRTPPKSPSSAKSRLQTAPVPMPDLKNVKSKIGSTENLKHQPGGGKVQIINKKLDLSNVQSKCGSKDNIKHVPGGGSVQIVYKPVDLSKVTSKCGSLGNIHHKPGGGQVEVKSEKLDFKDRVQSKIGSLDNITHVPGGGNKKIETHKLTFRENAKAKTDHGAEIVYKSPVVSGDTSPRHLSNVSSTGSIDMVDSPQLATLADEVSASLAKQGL

Tau 441 P301S = molecular target: T2, Tau 441 P301S (human, UniProt P10636-8 1-441, P301S); assay: as above
T2 construct: also called Tau P301S; FTLD-linked disease mutant of tau; source: bought: Signal Chem (T08-56GN)
T2 sequence (P10636 other isoform, or with tags, fused parts or gaps P301S | P301S | P301S P301S): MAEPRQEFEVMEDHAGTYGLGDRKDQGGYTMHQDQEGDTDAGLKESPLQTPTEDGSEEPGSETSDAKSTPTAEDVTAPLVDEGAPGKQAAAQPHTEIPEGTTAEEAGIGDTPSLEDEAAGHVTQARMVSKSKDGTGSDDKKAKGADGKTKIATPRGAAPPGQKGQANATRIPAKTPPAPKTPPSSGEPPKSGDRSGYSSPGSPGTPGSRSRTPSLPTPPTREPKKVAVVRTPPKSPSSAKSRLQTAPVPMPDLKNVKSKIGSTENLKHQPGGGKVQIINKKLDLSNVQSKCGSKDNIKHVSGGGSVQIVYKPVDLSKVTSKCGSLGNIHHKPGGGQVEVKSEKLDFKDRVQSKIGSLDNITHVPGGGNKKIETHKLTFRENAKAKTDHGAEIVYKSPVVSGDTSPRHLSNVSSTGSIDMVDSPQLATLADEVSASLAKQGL

Tau 410 P179A = molecular target: T3, Tau 410 P179A (human, UniProt P10636-5 1-410, P179A); assay: as above
T3 construct: human tau, splice form Tau 410, 410 residues, with P179A; numbers count on: Tau 410; also called Tau P179A; source: E. coli Rosetta(DE3)pLysS, purified (Ni-NTA agarose); not shown: His-tag, N-terminal, kept
T3 sequence (P10636 other isoform, or with tags, fused parts or gaps P179A | P179A | P179A P179A): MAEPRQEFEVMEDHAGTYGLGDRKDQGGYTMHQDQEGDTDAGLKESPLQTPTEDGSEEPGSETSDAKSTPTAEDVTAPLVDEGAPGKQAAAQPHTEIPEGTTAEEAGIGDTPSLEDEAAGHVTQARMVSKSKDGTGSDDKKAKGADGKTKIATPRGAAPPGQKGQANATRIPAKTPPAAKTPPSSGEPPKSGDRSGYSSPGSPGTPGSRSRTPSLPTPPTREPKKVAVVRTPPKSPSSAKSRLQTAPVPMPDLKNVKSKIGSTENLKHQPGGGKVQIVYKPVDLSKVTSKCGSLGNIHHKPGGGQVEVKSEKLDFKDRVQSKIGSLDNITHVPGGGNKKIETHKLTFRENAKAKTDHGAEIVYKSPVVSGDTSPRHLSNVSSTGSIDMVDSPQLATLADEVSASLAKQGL

Tau 410 P216A = molecular target: T4, Tau 410 P216A (human, UniProt P10636-5 1-410, P216A); assay: as above
T4 construct: human tau, splice form Tau 410, 410 residues, with P216A; numbers count on: Tau 410; also called Tau P216A; source: E. coli Rosetta(DE3)pLysS, purified (Ni-NTA agarose); not shown: His-tag, N-terminal, kept
T4 sequence (P10636 other isoform, or with tags, fused parts or gaps P216A | P216A | P216A P216A): as the sequence (P10636 other isoform, or with tags, fused parts or gaps P179A | P179A | P179A P179A) above, with A179P, P216A counted along it

[2] = molecular target: T5, human Tau 410 full-length protein (3R tau), SPR construct (human, UniProt P10636-5 1-410); assay: as above
T5 construct: human tau, splice form Tau 410 (a representative 3R tau), 410 residues; numbers count on: Tau 410; source: E. coli Rosetta(DE3)pLysS, purified (Ni-NTA agarose); not shown: His-tag, N-terminal, kept
T5 sequence (P10636 other isoform, or with tags, fused parts or gaps): as the sequence (P10636 other isoform, or with tags, fused parts or gaps P179A | P179A | P179A P179A) above, with A179P counted along it

Tau(244–341) of Tau 410 = molecular target: T6, Tau(244–341) of Tau 410 (human, UniProt P10636-5 244-341); assay: NMR titration; 1H-15N HSQC of labelled tau fragments without and with PQBP1(1–94), molar ratio Tau:PQBP1(1–94) 1:5; 0.1–0.5 mM tau, 20 mM sodium phosphate pH 7.0, 20 mM NaCl, 1 mM dithiothreitol, 283 K
T6 construct: human tau, splice form Tau 410, residues 244-341 (repeat region); numbers count on: Tau 410; Isotope-labelled (15N); also called the repeat region
T6 sequence (P10636 other isoform, or with tags, fused parts or gaps): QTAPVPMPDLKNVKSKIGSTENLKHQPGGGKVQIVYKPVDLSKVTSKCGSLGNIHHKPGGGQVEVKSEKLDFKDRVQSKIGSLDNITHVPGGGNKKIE

[3] = molecular target: B2; assay: as above

Binder | binding result [1] | binding result (Tau 441 P301S) | binding result (Tau 410 P179A) | binding result (Tau 410 P216A) | binding result [2] | binding result (Tau(244–341) of Tau 410) | binding result [3]
B1 | binds | binds | binds | binds | binds | – | –
B2 | binds | – | – | – | binds | binds | –
B3 | – | – | – | – | – | – | binds
B4 | – | – | – | – | – | – | binds

— paper PMC8592984, “Tau activates microglia via the PQBP1-cGAS-STING pathway to promote brain inflammation” (Nature Communications, 2021)
